The values that follow come from US20210113687A1, “METHODS FOR TREATING INFLAMMATION” (NEW YORK UNIVERSITY, priority 2013, published 2021).

In this experiment the target is netrin-1 secreted by mouse macrophages (conditioned medium of oxLDL-, CoCl2-, HIF-1alpha- or palmitate-treated macrophages) (mouse) (UniProt O09118). Description: cell-based or functional assay.

“recombinant rat UNC5b-Fc chimera (cat #1006-UN, R&D Systems) (from UniProt O08722 27-373) (Fc fusion)” came in with an inhibition of migration of naive macrophages to CCL19 by Ntn1+/+ conditioned medium with UNC5b-Fc of 25%.
